What was measured:
[1] = molecular target: T1, SpoVGSa (Staphylococcus aureus) (UniProt Q7A7B5); assay: competition; conditions: 50 mM Tris-HCl pH 7.5, 1 mM DTT, 150 nM EDTA, 50 ng/ml poly dI-dC, phosphatase and protease inhibitors; about 20 C; protein stocks in 50 mM Tris-HCl, 25 mM …
T1 sequence: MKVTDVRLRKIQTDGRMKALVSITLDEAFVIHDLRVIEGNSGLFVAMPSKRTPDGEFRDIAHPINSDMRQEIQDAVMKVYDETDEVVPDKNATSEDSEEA

[2] = molecular target: T2, SpoVGBb (Borrelia burgdorferi B31) (UniProt O51726); assay: EMSA; conditions: 50 mM Tris-HCl pH 7.5, 1 mM DTT, 150 nM EDTA, 50 ng/ml poly dI-dC, phosphatase and protease inhibitors; about 20 C; protein stocks in 50 mM Tris-HCl, 25 mM …
T2 sequence: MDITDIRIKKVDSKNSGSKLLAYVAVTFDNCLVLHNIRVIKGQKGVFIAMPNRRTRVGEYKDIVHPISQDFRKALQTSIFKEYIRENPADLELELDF

[3] = molecular target: T1, SpoVGSa (Staphylococcus aureus); assay: EMSA; conditions: 50 mM Tris-HCl pH 7.5, 1 mM DTT, 150 nM EDTA, 50 ng/ml poly dI-dC, phosphatase and protease inhibitors; about 20 C; protein stocks in 50 mM Tris-HCl, 25 mM …
SpoVGSa [4] = molecular target: T3, SpoVGSa (Staphylococcus aureus, UniProt Q7A7B5 1-100); assay: competition; 50-fold excess vs cap41; 50 mM Tris-HCl pH 7.5, 1 mM DTT, 150 nM EDTA, 50 ng/ml poly dI-dC, phosphatase and protease inhibitors; about 20 C; protein stocks in 50 mM Tris-HCl, 25 mM KCl, 10% glycerol, 0.01% Tween-20; conditions: protein: recombinant; tags: 6xHis (pET101)
T3 sequence: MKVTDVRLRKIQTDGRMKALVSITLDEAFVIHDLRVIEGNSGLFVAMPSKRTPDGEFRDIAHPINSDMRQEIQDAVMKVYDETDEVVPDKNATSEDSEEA

SpoVGSa [5] = molecular target: T3, SpoVGSa; assay: competition; 10- to 50-fold excess vs cap41; 50 mM Tris-HCl pH 7.5, 1 mM DTT, 150 nM EDTA, 50 ng/ml poly dI-dC, phosphatase and protease inhibitors; about 20 C; protein stocks in 50 mM Tris-HCl, 25 mM KCl, 10% glycerol, 0.01% Tween-20; conditions: protein: recombinant; tags: 6xHis (pET101); blunt
SpoVGSa [6] = molecular target: T3, SpoVGSa; assay: EMSA; 50 mM Tris-HCl pH 7.5, 1 mM DTT, 150 nM EDTA, 50 ng/ml poly dI-dC, phosphatase and protease inhibitors; about 20 C; protein stocks in 50 mM Tris-HCl, 25 mM KCl, 10% glycerol, 0.01% Tween-20; conditions: protein: recombinant; tags: 6xHis (pET101); label: 5' biotin (strand 1); strands not exact complements (S12 has 3 extra nt)
SpoVGSa K50A = SpoVGSa K50A (Staphylococcus aureus, UniProt Q7A7B5 1-100, K50A); assay: EMSA; 1.5 uM protein; 50 mM Tris-HCl pH 7.5, 1 mM DTT, 150 nM EDTA, 50 ng/ml poly dI-dC, phosphatase and protease inhibitors; about 20 C; protein stocks in 50 mM Tris-HCl, 25 mM KCl, 10% glycerol, 0.01% Tween-20; conditions: protein: recombinant; tags: 6xHis (pET101); label: 5' biotin (strand 1); strands not exact complements (S12 has 3 extra nt)
SpoVGSa K50A-R51A = SpoVGSa K50A-R51A (Staphylococcus aureus, UniProt Q7A7B5 1-100, K50A;R51A); assay: as above; conditions: protein: recombinant; tags: 6xHis (pET101); label: 5' biotin (strand 1); strands not exact complements (S12 has 3 extra nt)
SpoVGSa R51A = SpoVGSa R51A (Staphylococcus aureus, UniProt Q7A7B5 1-100, R51A); assay: as above; conditions: protein: recombinant; tags: 6xHis (pET101); label: 5' biotin (strand 1); strands not exact complements (S12 has 3 extra nt)
SpoVGBb-Sa = SpoVGBb-Sa (Borrelia burgdorferi B31, UniProt O51726 1-97, Q69S;F71M;K73Q;A74E); assay: EMSA; 200 nM protein; 50 mM Tris-HCl pH 7.5, 1 mM DTT, 150 nM EDTA, 50 ng/ml poly dI-dC, phosphatase and protease inhibitors; about 20 C; protein stocks in 50 mM Tris-HCl, 25 mM KCl, 10% glycerol, 0.01% Tween-20; conditions: protein: recombinant; tags: 6xHis (pET101); label: 5' biotin (strand 1); strands not exact complements (S12 has 3 extra nt)
SpoVGBb = molecular target: T4, SpoVGBb (Borrelia burgdorferi B31, UniProt O51726 1-97); assay: as above; conditions: protein: recombinant; tags: 6xHis (pET101); label: 5' biotin (strand 1); strands not exact complements (S12 has 3 extra nt)
T4 sequence: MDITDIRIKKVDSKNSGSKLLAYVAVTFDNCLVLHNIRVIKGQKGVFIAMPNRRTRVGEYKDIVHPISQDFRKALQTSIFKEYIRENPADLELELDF

SpoVGSa [7] = molecular target: T3, SpoVGSa; assay: competition; 25- and 50-fold excess vs cap41; 50 mM Tris-HCl pH 7.5, 1 mM DTT, 150 nM EDTA, 50 ng/ml poly dI-dC, phosphatase and protease inhibitors; about 20 C; protein stocks in 50 mM Tris-HCl, 25 mM KCl, 10% glycerol, 0.01% Tween-20; conditions: protein: recombinant; tags: 6xHis (pET101); blunt

**Q.** How did the binding [1] turn out when “CCTCCTGAATATTTTAAGTTTATCAAAACTTTTTAGGGACACTATTTTTTGAAAAAGTGCTCCTTACTCAAATAATATATAAATTATTAGTATATGTATATAGTTTTTTAAGTATTTTTAGTTTTTTTTAAATAAATATATTGAATATACCCATATATTTTTAATTAACCATTCATTTTTGTAATATAAATGTGTATACTAAAATTAAATTAAATACATAAAGG (double strand) [esxA 5' non-coding DNA]” was run?
**A.** The binding was “binds”.

**Q.** “GTTAATAGTTTGCCTAAGGAAAAAAGCGATATAAGTAGTACGACGGGGAAACCAGATAGTACAGGTTCTGTTGGT (double strand) [vlsE F27B-R10]” was tested. Which binding [2] did it give?
**A.** The binding was “binds”.

**Q.** With “GGTGAATACTTATCATTTAAGTCCTTTGACACCTCATCTAAAATTCTAGGACTTTTAACAATTTCTTTATACGTATTTACAAGTTGAATATTACTTTGAACCTCTTGCGCCATAAACTGAGGATTGTCACCCTTAGTTTGATTCACTAAAATTTGAGTATTAGCTTGATATTTAGGTGATAAGACGAAAAATGTAACAATAGCGC (double strand) [cap5A ORF DNA]” as the molecule, how does the binding [1] read?
**A.** Its binding is “binds more weakly”.

**Q.** cap5 5' non-coding DNA was tested. Which Kd [3] did it give?
**A.** Its Kd is 316 nM.

B1: competitor C (dsDNA)
DNA 1: AAAATAATGCGGTTTAAAAGTAATTAAT
DNA 2: ATTAATTACTTTTAAACCGCATTATTTT
**Q.** Does B1 bind (SpoVGSa [4])?
**A.** Result: no binding

B2: competitor B (dsDNA)
DNA 1: TACATATAAATAAAAAGGCGAAAATAAT
DNA 2: ATTATTTTCGCCTTTTTATTTATATGTA
**Q.** Does B2 bind (SpoVGSa [4])?
**A.** Result: no binding

B3: competitor A (dsDNA)
DNA 1: GAGTATAATTATTTTTAATTTACATATA
DNA 2: TATATGTAAATTAAAAATAATTATACTC
**Q.** Does B3 bind (SpoVGSa [5])?
**A.** Result: binds

B4: cap41 (dsDNA)
DNA 1: GAGTATAATTATTTTTAATTTACATATAAATAAAAAGGCGAAAATAATGCGGTTTAAAAGTAATTAAT
DNA 2: ATTAATTACTTTTAAACCGCATTATTTTCGCCTTTTTATTTATATGTAAATTAAAAATAATTAATATACTC
**Q.** What does the source list for B4?
**A.** binding result (SpoVGSa [6]): binds; binding result (SpoVGSa K50A): no binding; binding result (SpoVGSa K50A-R51A): no binding; binding result (SpoVGSa R51A): no binding; binding result (SpoVGBb-Sa): binds; binding result (SpoVGBb): no binding

B5: mutant competitor A (dsDNA)
DNA 1: GAGTAGCCGCCTTTTCGCCGGACATATA
DNA 2: TATATGTCCGGCGAAAAGGCGGCTACTC
**Q.** How did the binding signal (SpoVGSa [7]) turn out when B5 was run?
**A.** Its binding signal is > 5 fold lower affinity than competitor A.

Source: paper PMC3688583, “Eubacterial SpoVG Homologs Constitute a New Family of Site-Specific DNA-Binding Proteins”
